Publication PMC7215387, “Comparison of Target Recognition by TRAF1 and TRAF2” (International Journal of Molecular Sciences, 2020)
Positions count from the first letter of the chain named. Residues, ends and D or L forms follow the SMILES beside them.

Experiments:
[1] = target: T1, TRAF1 F347L mutant (Homo sapiens, UniProt Q13077, F347L); test: Isothermal titration calorimetry (ITC), TRAF1 F347L mutant; assay type: binding; settings: Supplementary Figure S2a,b
T1 construct: the TRAF1 TRAF domain (amino acid residues 220-416); 6xHis (C); made in house; host or cells: E. coli BL21 (DE3)
T1 sequence (Q13077 220-416 F347L): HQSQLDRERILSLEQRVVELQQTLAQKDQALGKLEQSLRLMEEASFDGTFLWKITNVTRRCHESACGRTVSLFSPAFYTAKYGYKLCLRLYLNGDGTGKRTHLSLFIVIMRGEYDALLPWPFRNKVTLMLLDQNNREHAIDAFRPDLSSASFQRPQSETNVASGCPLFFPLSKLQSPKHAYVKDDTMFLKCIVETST
Description: To understand how TRAF1 binds with higher affinity to TANK and caspase-2, we compared the amino acid sequence of the receptor-binding hot spots on TRAF1 and TRAF2. There are three well-known hot spots in TRAFs (Figure 5a). Based on the sequence comparison, two amino acid residues in TRAF1, F347 of hot spot1 and A369 of hot spot2, were not conserved in TRAF2 (Figure 5b). As the two non-conserved amino acid residues of TRAF1 may generate different conditions for receptor-binding regions and affect its affinity for various receptors, we compared the receptor-binding regions between TRAF1 and TRAF2 by comparing the TRAF1:TANK structure with the TRAF2:latent membrane protein 1 (LMP1) structure (Figure 5c). […] S454 of TRAF2 was not critical for the formation of an H-bond cluster, unlike residues S453 and S455, which were closely located to the Q at the P0 position of the receptor peptide. […] However, F347 on TRAF1 (corresponding to L432 on TRAF2) was critical for determining receptor preference and binding affinity by contributing to the formation of a stable hydrophobic pocket in the hot spot1 motif.
A NanoITC (TA Instruments) was used for isothermal titration calorimetry experiments. […] Binding isotherms were analyzed by using the software provided by TA Instruments. […]

[2] = target: TRAF1 F347L mutant (UniProt Q13077); test: ITC; NanoITC; peptide (1 mM) injected into the cell with TRAF domain (~20 uM); PBS; 15 °C; 25 injections; single site model
[3] = target: T2, TRAF2 TRAF domain (amino acid residues 305-501) (UniProt Q12933 305-501); test: as above; settings: both partners purified
T2 construct: TRAF2 (TNF receptor-associated factor 2), TRAF domain, residues 305-501; it speaks of 'the three subunits of TRAF2'; source: E. coli BL21 (DE3), purified (Ni-NTA, SEC); not shown: His6, C-terminal, kept
T2 sequence (looked up): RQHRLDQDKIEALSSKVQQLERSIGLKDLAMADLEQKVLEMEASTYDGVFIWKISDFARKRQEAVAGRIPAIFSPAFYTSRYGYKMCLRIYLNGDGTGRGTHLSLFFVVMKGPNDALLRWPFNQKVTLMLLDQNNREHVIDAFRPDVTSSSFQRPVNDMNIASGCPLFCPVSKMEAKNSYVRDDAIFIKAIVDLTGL

[4] = target: T3, TRAF1 TRAF domain (amino acid residues 220-416) (UniProt Q13077 220-416); test: as above; settings: both partners purified
T3 construct: TRAF1 (TNF receptor-associated factor 1), TRAF domain, residues 220-416; it speaks of 'trimeric TRAF1'; source: E. coli BL21 (DE3), purified (Ni-NTA, SEC); not shown: His6, C-terminal, kept
T3 sequence (looked up): T1 sequence (Q13077 220-416 F347L) with L128F

[5] = target: T2, TRAF2 TRAF domain (amino acid residues …); test: SPR; Biacore T200; His-tagged TRAF domain held on Ni-NTA chip; TRADD-N 0.39-3.125 uM flowed over in PBS, 30 uL/min; settings: both partners purified
[6] = target: T3, TRAF1 TRAF domain (amino acid residues …); test: as above; settings: both partners purified
[7] = target: TRAF2 S454A mutant (UniProt Q12933); test: ITC; TRADD with TRAF2 S454A mutant; who was titrated and conditions not told for this experiment

Work on `CC[C@H](C)[C@H](NC(=O)[C@@H]1CCCN1C(=O)[C@@H](NC(=O)[C@@H](N)CO)C(C)C)C(=O)N[C@@H](CCC(N)=O)C(=O)N[C@@H](CS)C(=O)N[C@H](C(=O)N[C@@H](CC(=O)O)C(=O)N[C@@H](CCCCN)C(=O)N[C@H](C(=O)O)[C@@H](C)O)[C@@H](C)O` [TANK] (H-SVPIQCTDKT-OH) yielded a Kd [1] of about 15 µM.

In the case of TAQEM (source: synthetic peptide (Peptron)) [caspase-2 peptide (TAQEM)], the Kd [2] is reported as 265 µM, the Kd [3] is reported as 117 µM and the Kd [4] is reported as 86.9 µM.

For SVPIQCTDKT (source: synthetic peptide (Peptron)) [TANK peptide (SVPIQCTDKT)], the Kd [3] was 11.7 µM and the Kd [4] was 2.5 µM.

B1: N-terminal domain of TRADD (TRADD-N, amino acid residues 1-163) (domain or fragment, UniProt Q15628 1-163, looked up)
chain: MAAGQNGHEEWVGSAYLFVESSLDKVVLSDAYAHPQQKVAVYRALQAALAESGGSPDVLQMLKIHRSDPQLIVQLRFCGRQPCGRFLRAYREGALRAALQRSLAAALAQHSVPLQLELRAGAERLDALLADEERCLSCILAQQPDRLRDEELAELEDALRNLK
notes: TRADD (tumor necrosis factor receptor type 1-associated death domain protein), N-terminal domain, residues 1-163; Cloned into pET24a by NdeI and XhoI; source: E. coli, purified (almost identical to the method for TRAF1 and TRAF2; SEC in 20 mM Tris-HCl pH 8.0, 150 mM NaCl)
B1 was tested, and the Kd [5] was 0.018 µM, the Kd [6] was 0.082 µM and the Kd [7] was 0.055 µM.
